The numbers were not newly measured in PMC7060279, which cites them from elsewhere.

As a reminder, the Kd is the free concentration of one partner at which half of the binding sites on the other are occupied at equilibrium, for simple one-to-one binding.

Data set [1] deals with TLR4/MD2 (Homo sapiens) (UniProt O00206).
The target in data set [2] is TLR4 (Homo sapiens) (UniProt O00206).
Chain of TLR4 (Homo sapiens) (O00206 24-839): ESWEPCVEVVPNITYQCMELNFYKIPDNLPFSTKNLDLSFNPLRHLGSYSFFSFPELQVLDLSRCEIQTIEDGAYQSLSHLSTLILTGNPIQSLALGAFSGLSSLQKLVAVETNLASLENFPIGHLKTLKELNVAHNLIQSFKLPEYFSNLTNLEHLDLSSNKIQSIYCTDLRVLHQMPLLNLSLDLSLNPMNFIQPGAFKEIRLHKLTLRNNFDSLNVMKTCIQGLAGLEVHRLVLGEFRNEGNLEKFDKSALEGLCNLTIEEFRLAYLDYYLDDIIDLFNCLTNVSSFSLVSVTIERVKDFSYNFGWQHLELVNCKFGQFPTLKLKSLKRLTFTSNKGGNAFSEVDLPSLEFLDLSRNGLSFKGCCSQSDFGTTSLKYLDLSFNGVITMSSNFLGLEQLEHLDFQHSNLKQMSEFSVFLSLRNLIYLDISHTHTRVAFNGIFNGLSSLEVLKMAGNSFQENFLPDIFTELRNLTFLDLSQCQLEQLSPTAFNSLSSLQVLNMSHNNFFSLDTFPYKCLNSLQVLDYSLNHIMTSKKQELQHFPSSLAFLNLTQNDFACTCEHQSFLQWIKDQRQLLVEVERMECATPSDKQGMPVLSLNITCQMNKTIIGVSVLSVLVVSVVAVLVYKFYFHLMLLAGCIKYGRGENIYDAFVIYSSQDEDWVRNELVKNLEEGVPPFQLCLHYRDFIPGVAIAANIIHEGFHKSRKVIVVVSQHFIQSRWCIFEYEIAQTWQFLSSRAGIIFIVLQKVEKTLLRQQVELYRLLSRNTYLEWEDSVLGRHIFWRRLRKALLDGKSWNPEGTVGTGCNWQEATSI

Chain of HMGB1 (P09429 whole entry): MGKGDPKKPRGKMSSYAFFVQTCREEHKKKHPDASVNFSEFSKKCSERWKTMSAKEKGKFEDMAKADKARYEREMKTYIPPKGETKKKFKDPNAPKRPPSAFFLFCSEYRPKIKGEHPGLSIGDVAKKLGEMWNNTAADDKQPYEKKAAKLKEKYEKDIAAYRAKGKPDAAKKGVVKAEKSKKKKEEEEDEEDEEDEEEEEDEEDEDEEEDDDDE
Chain of TLR4/MD2 (Homo sapiens) (O00206 24-839, chain 1 of 2): as the sequence (O00206 24-839) above
Chain of TLR4/MD2 (Homo sapiens) (Q9Y6Y9 19-160, chain 2 of 2, further chain): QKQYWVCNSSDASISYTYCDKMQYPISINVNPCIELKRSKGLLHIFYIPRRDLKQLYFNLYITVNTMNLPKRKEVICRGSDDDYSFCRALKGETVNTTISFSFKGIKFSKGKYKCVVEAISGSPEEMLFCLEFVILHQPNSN

Turning to HMGB1 (from UniProt P09429), the Kd in data set [1] is 420 nM; in data set [2], 650 nM.
